Assay results taken from PMC6917434 (Journal of thrombosis and haemostasis : JTH, 2019).
Like-named read-outs stand apart in the source and are kept apart here.

What was measured:
Experiment in all cases: single-molecule atomic force microscopy
[1] = biological target: Factor XIII A subunit of plasma-purified inactive factor XIII (pFXIII-A2B2) (human) (UniProt P00488)
[2] = biological target: T1, recombinant inactive factor XIII A subunit from ZymoGenetics (rFXIII-A2) (human), P00488; settings: remark: other sources report otherwise
T1 chain: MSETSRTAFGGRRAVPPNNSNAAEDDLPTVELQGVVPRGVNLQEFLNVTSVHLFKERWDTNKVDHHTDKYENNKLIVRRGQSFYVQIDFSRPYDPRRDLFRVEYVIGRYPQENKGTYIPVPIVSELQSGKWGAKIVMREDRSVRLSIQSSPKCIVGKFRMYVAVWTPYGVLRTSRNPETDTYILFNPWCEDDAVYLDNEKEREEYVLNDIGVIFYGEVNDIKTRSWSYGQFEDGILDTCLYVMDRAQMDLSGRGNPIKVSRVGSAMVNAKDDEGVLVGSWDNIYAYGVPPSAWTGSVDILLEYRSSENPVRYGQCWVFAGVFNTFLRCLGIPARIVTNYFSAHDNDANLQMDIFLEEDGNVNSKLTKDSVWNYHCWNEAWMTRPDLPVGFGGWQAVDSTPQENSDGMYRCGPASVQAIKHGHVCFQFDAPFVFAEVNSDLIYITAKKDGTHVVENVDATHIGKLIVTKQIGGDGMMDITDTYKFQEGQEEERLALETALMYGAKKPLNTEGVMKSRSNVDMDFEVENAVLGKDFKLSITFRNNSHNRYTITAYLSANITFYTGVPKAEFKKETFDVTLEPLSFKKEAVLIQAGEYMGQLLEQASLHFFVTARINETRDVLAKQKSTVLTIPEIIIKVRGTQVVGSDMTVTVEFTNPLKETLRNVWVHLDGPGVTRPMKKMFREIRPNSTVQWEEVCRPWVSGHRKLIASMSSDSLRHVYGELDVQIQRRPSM

[3] = biological target: T1, recombinant inactive factor XIII A …; settings: remark: other sources report otherwise
[4] = biological target: the molecule itself
[5] = biological target: the molecule itself; remark: listed apart in the source

In the case of “Factor XIII A subunit of plasma-purified inactive factor XIII (pFXIII-A2B2) (from UniProt P00488 39-732) (enzyme)”, the stoichiometry N [1] is reported as 2.

B1: recombinant inactive factor XIII A subunit from ZymoGenetics (rFXIII-A2), P00488 1-732 (enzyme)
chain: MSETSRTAFGGRRAVPPNNSNAAEDDLPTVELQGVVPRGVNLQEFLNVTSVHLFKERWDTNKVDHHTDKYENNKLIVRRGQSFYVQIDFSRPYDPRRDLFRVEYVIGRYPQENKGTYIPVPIVSELQSGKWGAKIVMREDRSVRLSIQSSPKCIVGKFRMYVAVWTPYGVLRTSRNPETDTYILFNPWCEDDAVYLDNEKEREEYVLNDIGVIFYGEVNDIKTRSWSYGQFEDGILDTCLYVMDRAQMDLSGRGNPIKVSRVGSAMVNAKDDEGVLVGSWDNIYAYGVPPSAWTGSVDILLEYRSSENPVRYGQCWVFAGVFNTFLRCLGIPARIVTNYFSAHDNDANLQMDIFLEEDGNVNSKLTKDSVWNYHCWNEAWMTRPDLPVGFGGWQAVDSTPQENSDGMYRCGPASVQAIKHGHVCFQFDAPFVFAEVNSDLIYITAKKDGTHVVENVDATHIGKLIVTKQIGGDGMMDITDTYKFQEGQEEERLALETALMYGAKKPLNTEGVMKSRSNVDMDFEVENAVLGKDFKLSITFRNNSHNRYTITAYLSANITFYTGVPKAEFKKETFDVTLEPLSFKKEAVLIQAGEYMGQLLEQASLHFFVTARINETRDVLAKQKSTVLTIPEIIIKVRGTQVVGSDMTVTVEFTNPLKETLRNVWVHLDGPGVTRPMKKMFREIRPNSTVQWEEVCRPWVSGHRKLIASMSSDSLRHVYGELDVQIQRRPSM
B1 showed a stoichiometry N [2] of 2 and a stoichiometry N [3] of 2.

B2: recombinant factor XIII B subunit from Zedira (rFXIII-B2) (natural protein, human, UniProt P05160 21-661, looked up)
chain: EEKPCGFPHVENGRIAQYYYTFKSFYFPMSIDKKLSFFCLAGYTTESGRQEEQTTCTTEGWSPEPRCFKKCTKPDLSNGYISDVKLLYKIQENMRYGCASGYKTTGGKDEEVVQCLSDGWSSQPTCRKEHETCLAPELYNGNYSTTQKTFKVKDKVQYECATGYYTAGGKKTEEVECLTYGWSLTPKCTKLKCSSLRLIENGYFHPVKQTYEEGDVVQFFCHENYYLSGSDLIQCYNFGWYPESPVCEGRRNRCPPPPLPINSKIQTHSTTYRHGEIVHIECELNFEIHGSAEIRCEDGKWTEPPKCIEGQEKVACEEPPFIENGAANLHSKIYYNGDKVTYACKSGYLLHGSNEITCNRGKWTLPPECVENNENCKHPPVVMNGAVADGILASYATGSSVEYRCNEYYLLRGSKISRCEQGKWSSPPVCLEPCTVNVDYMNRNNIEMKWKYEGKVLHGDLIDFVCKQGYDLSPLTPLSELSVQCNRGEVKYPLCTRKESKGMCTSPPLIKHGVIISSTVDTYENGSSVEYRCFDHHFLEGSREAYCLDGMWTTPPLCLEPCTLSFTEMEKNNLLLKWDFDNRPHILHGEYIEFICRGDTYPAELYITGSILRMQCDRGQLKYPRCIPRQSTLSYQEPLRT
modifications: glycosylation pattern different from the plasma-purified B subunit (sites not given)
B2 was tested, and the “stoichiometry N” value [4] was 2.

B3: Factor XIII B subunit of plasma-purified factor XIII (natural protein, human, UniProt P05160 21-661, looked up)
chain: EEKPCGFPHVENGRIAQYYYTFKSFYFPMSIDKKLSFFCLAGYTTESGRQEEQTTCTTEGWSPEPRCFKKCTKPDLSNGYISDVKLLYKIQENMRYGCASGYKTTGGKDEEVVQCLSDGWSSQPTCRKEHETCLAPELYNGNYSTTQKTFKVKDKVQYECATGYYTAGGKKTEEVECLTYGWSLTPKCTKLKCSSLRLIENGYFHPVKQTYEEGDVVQFFCHENYYLSGSDLIQCYNFGWYPESPVCEGRRNRCPPPPLPINSKIQTHSTTYRHGEIVHIECELNFEIHGSAEIRCEDGKWTEPPKCIEGQEKVACEEPPFIENGAANLHSKIYYNGDKVTYACKSGYLLHGSNEITCNRGKWTLPPECVENNENCKHPPVVMNGAVADGILASYATGSSVEYRCNEYYLLRGSKISRCEQGKWSSPPVCLEPCTVNVDYMNRNNIEMKWKYEGKVLHGDLIDFVCKQGYDLSPLTPLSELSVQCNRGEVKYPLCTRKESKGMCTSPPLIKHGVIISSTVDTYENGSSVEYRCFDHHFLEGSREAYCLDGMWTTPPLCLEPCTLSFTEMEKNNLLLKWDFDNRPHILHGEYIEFICRGDTYPAELYITGSILRMQCDRGQLKYPRCIPRQSTLSYQEPLRT
modifications: glycoprotein (sites not given)
With B3 the “stoichiometry N” value [5] was 2.
